{
  "source": "patent US12214004B2",
  "about": "“Strains having effects of preventing or treating cancers” (Genome And Company, priority 2018, dated 2025)",
  "key": {"HCT116 [1]": {"system": "HCT116", "assay": "HCT116 cell viability, anticancer chemotherapeutic agent with GEN3033"}, "HCT116 [2]": {"system": "HCT116"}, "MC38 cancer cells": {"system": "MC38 cancer cells", "assay": "MC38 tumor-induced model in C57BL/6 mice, MG731", "type": "in vivo, mouse", "conditions": "administered in combination with MG731", "method": "Prior to constructing a tumor model, a sample of lactic acid bacteria was administered to mice for 2 weeks to increase intestinal establishment and immunity, and then 2×10^5 MC38 cancer cells were injected subcutaneously in the vicinity of the right hip of 8 C57BL/6 mice per group to construct a tumor-induced model. Simultaneously with injection of tumor cells, a sample of lactic acid bacteria was orally administered to the animal model for 3 weeks (from Monday to Saturday). The sample of lactic acid bacteria to be administered was diluted in 200 μL of PBS so as to be 1×10^9 of CFU per head and then administered orally."}, "HCT116 [3]": {"system": "HCT116", "assay": "Cell lysis ability of PBMC against cancer cells (CFSE/7-AAD), GEN3033", "type": "cell-based, human", "conditions": "cancer cell death caused by PBMC set to 100%", "method": "PBMCs (peripheral blood mononuclear cells) were collected from the human blood using Ficoll, and then red blood cells were removed through RBC lysis buffer, and the number of living cells was counted, and the cells were cultured for 24 hours in a round bottom 96 well plate containing lactic acid bacteria (3×10^5/50 ul/well) by adding PBMC 3 x 10^4 cells/50 μl to each well.\n(§1) The colon cancer cell line HCT116 was mixed with 5 μM of CFSE (carboxyfluorescein succinimidyl ester) in RPMI medium without FBS, and reacted at 37° C. for 5 minutes, and then RPMI1640 medium containing FBS was added, and stored on ice for 10 minutes. After the supernatant was removed by centrifugation, the obtained cells were mixed with RPMI1640 containing 10% FBS, and then the number of cells was counted, and 3×10^4 cells/100 μl were added to each well of the above prepared 96 well plate.\nStaining for CFSE and 7-AAD using FACSDiVa software (BD Biosciences) was measured to confirm the cell lysis ability of PBMC against cancer cell lines, and the results are shown in FIG. 29."}, "HCT116 [4]": {"system": "HCT116", "assay": "Cell lysis ability of PBMC against cancer cells (CFSE/7-AAD), MG731", "type": "cell-based", "conditions": "cancer cell death caused by PBMC set to 100%", "method": "PBMCs (peripheral blood mononuclear cells) were collected from the human blood using Ficoll, and then red blood cells were removed through RBC lysis buffer, and the number of living cells was counted, and the cells were cultured for 24 hours in a round bottom 96 well plate containing lactic acid bacteria (6×10^5/50 ul/well) by adding PBMC 3 x 10^4 cells/50 μl to each well.\nas §1\nStaining for CFSE and 7-AAD using FACSDiVa software (BD Biosciences) was measured to confirm the cell lysis ability of PBMC against cancer cell lines, and the results are shown in FIG. 9."}, "[5]": {"conditions": "HCT116, combination treatment with 0.5% GEN3033, compared to the agent alone"}},
  "note": "Like-named read-outs stand apart in the source and are kept apart here.",
  "data": [
    {"molecule": "O=c1[nH]cc(F)c(=O)[nH]1", "note": "[5-FU, fluorouracil]", "values": [
      {"measurement": "cancer cell death", "setting": "HCT116 [1]; [5]", "value": "remarkably high"}
    ]},
    {"molecule": "N.N.[Cl][Pt][Cl]", "note": "[Cisplatin, cisplatin]", "values": [
      {"measurement": "cell viability", "setting": "HCT116 [1]; HCT116, 7 μM Cisplatin in combination with 0.5% GEN3033, compared to 7 μM Cisplatin alone", "value": "remarkably reduced"}
    ]},
    {"molecule": "O=P1(N(CCCl)CCCl)NCCCO1", "note": "(stereo not drawn) [cyclophosphamide]", "values": [
      {"measurement": "cancer cell death", "setting": "HCT116 [1]; [5]", "value": "remarkably high"}
    ]},
    {"molecule": "O=C1[O][Pt]2([NH][C@@H]3CCCC[C@H]3[NH]2)[O]C1=O", "note": "[oxaliplatin]", "values": [
      {"measurement": "cancer cell death", "setting": "HCT116 [1]", "value": "remarkably high"},
      {"measurement": "cell viability", "setting": "HCT116 [2]", "value": "≥ 90", "unit": "%"},
      {"measurement": "tumor inhibitory effect", "setting": "MC38 cancer cells", "value": "more excellent"}
    ]},
    {"molecule": "CC(=O)O[C@H]1C(=O)[C@@]2(C)[C@H]([C@H](OC(=O)c3ccccc3)[C@]3(O)C[C@H](OC(=O)[C@H](O)[C@@H](NC(=O)c4ccccc4)c4ccccc4)C(C)=C1C3(C)C)[C@]1(OC(C)=O)CO[C@@H]1C[C@@H]2O", "note": "[paclitaxel]", "values": [
      {"measurement": "cancer cell death", "setting": "HCT116 [1]; [5]", "value": "remarkably high"}
    ]},
    {"molecule": "Atezolizumab [anti-PD-L1]", "values": [
      {"measurement": "cancer cell death (cytotoxicity)", "setting": "HCT116 [3]; alone", "value": 123.5, "unit": "%"},
      {"measurement": "cancer cell death (cytotoxicity)", "setting": "HCT116 [3]; in combination with GEN3033", "value": 154.0, "unit": "%"},
      {"measurement": "cancer cell death (cytotoxicity)", "setting": "HCT116 [4]; alone", "value": 133.6, "unit": "%"},
      {"measurement": "cancer cell death (cytotoxicity)", "setting": "HCT116 [4]; in combination with MG731", "value": 221.6, "unit": "%"}
    ]},
    {"molecule": "Ipilimumab [antiCTLA-4]", "values": [
      {"measurement": "cancer cell death (cytotoxicity)", "setting": "HCT116 [3]; alone", "value": 116.0, "unit": "%"},
      {"measurement": "cancer cell death (cytotoxicity)", "setting": "HCT116 [3]; in combination with GEN3033", "value": 128.3, "unit": "%"},
      {"measurement": "cancer cell death (cytotoxicity)", "setting": "HCT116 [4]; alone", "value": 108, "unit": "%"},
      {"measurement": "cancer cell death (cytotoxicity)", "setting": "HCT116 [4]; in combination with MG731", "value": 214.4, "unit": "%"}
    ]}
  ]
}
